This is an account of results in PMC3650080, “Structural Insights into the UbiD Protein Family from the Crystal Structure of PA0254 from Pseudomonas aeruginosa” (PLoS ONE, 2013).

Series [1] concerns the molecule itself. Nature of the series: SEC; superdex-200 column (GE-Healthcare) calibrated with Ribonuclease-A, Chymotrypsinogen-A, Ovalbumin, Albumin, Catalase and Ferretin; absorbance at 280 nm. On the technique in general: Size exclusion chromatography separates by hydrodynamic size, large species first.
Series [2] deals with the molecule itself. The series can be described thus: crystal structure; two crystal forms of His6-PA0254: P2(1) (1 M (NH4)2SO4, 0.1 M Bis-Tris pH 5.5, 1% PEG 3350; 2.3 Å, four subunits in the asymmetric unit) and P3(2)21 (0.1 M Hepes pH 7.5, 0.2 M MgCl2, 10% PEG 400; 1.95 Å, three subunits); dimer told from crystal packing and PISA.

B1: UbiD from P. aeruginosa (PA5237) (enzyme, Pseudomonas aeruginosa PAO1, UniProt Q9HTV3 1-488, looked up)
chain: MTFKDLRDFIAQLEQRGALKRIQVPISPVLEMTEVCDRTLRAKGPALLFEKPTGFDMPVLGNLFGTPERVALGMGAEDVGALREIGKLLAQLKEPEPPKGLKDAWAKLPMYRKVLSMAPKVLKDAPCQEVVEEGEDVDLGRLPVQTCWPGDVGPLITWGLTVTRGPNKERQNLGIYRQQVIGRNKVIMRWLSHRGGALDYREWCQKHPGQPYPVAVALGADPATILGAVTPVPDTLSEYAFAGLLRGHRTELVKCRGSDLQVPASAEIVLEGVIHPGEMADEGPYGDHTGYYNEVDRFPVFTVERVTRRQKPIYHSTYTGRPPDEPAILGVALNEVFVPILQKQFPEIVDFYLPPEGCSYRMAVVTMKKQYPGHAKRVMLGVWSFLRQFMYTKFVIVTDDDIDARDWNDVIWAITTRMDPKRDTVMIDNTPIDYLDFASPVSGLGSKMGLDATHKWPGETSREWGRAIVKDEAVTRRIDALWSSLGID
notes: PA5237, UbiD (3-polyprenyl-4-hydroxybenzoate decarboxylase) of Pseudomonas aeruginosa PAO1; construct not described; also called UbiD1; bona fide UbiD
In general, stoichiometry N refers to a count of units in the complex or per binding partner. On to B1, for which, in series [1], the “stoichiometry N” value is 6.

B2: PA0254 from Pseudomonas aeruginosa (UbiD-like protein) (enzyme, Pseudomonas aeruginosa PAO1, UniProt Q9I6N5 1-496, looked up)
chain: MNRSALDFRHFVDHLRRQGDLVDVHTEVDANLEIGAITRRVYERRAPAPLFHNIRDSLPGARVLGAPAGLRADRARAHSRLALHFGLPEHSGPRDIVAMLRAAMRAEPIAPRRLERGPVQENVWLGEQVDLTRFPVPLLHEQDGGRYFGTYGFHVVQTPDGSWDSWSVGRLMLVDRNTLAGPTIPTQHIGIIREQWRRLGKPTPWAMALGAPPAALAAAGMPLPEGVSEAGYVGALVGEPVEVVRTQTNGLWVPANTEIVLEGEISLDETALEGPMGEYHGYSFPIGKPQPLFHVHALSFRDQPILPICVAGTPPEENHTIWGTMISAQLLDVAQNAGLPVDMVWCSYEAATCWAVLSIDVQRLAALGTDAAAFAARVAETVFGSHAGHLVPKLILVGNDIDVTEIDQVVWALATRAHPLHDHFAFPQIRDFPMVPYLDAEDKARGSGGRLVINCLYPEQFAGQMRAATASFRHAYPTALRRRVEERWSDYGFGDA
notes: PA0254, UbiD-like putative 3-polyprenyl-4-hydroxybenzoate decarboxylase of Pseudomonas aeruginosa PAO1; full-length gene (residues 1-496 modelled); calculated mass of His6-PA0254 57053 Da per subunit; The TEV-cleavable His6 tag was not removed (incomplete cleavage); tag residues -7 to 0 are partly seen in the trigonal crystal; A SeMet-substituted form was used for phasing only; also called UbiD2; …
Take B2: the “stoichiometry N” value in series [2] worked out at 2.
